In paper PMC6220978, “Induced conformational changes activate the peptidoglycan synthase PBP1B” (Molecular Microbiology, 2018):

Target: T1, PBP1B I202F (E. coli, UniProt P02919 46-844, I202F)
T1 construct: PBP1B, E. coli, residues 46-844, made by mutagenesis of pDML924; Substitution first found in the suppressor screen of Markovski et al. 2016 (LpoB bypass); source: E. coli BL21(DE3), purified (membrane extract, HisTrap, thrombin, HiTrap SP ion exchange)
T1 sequence (looked up): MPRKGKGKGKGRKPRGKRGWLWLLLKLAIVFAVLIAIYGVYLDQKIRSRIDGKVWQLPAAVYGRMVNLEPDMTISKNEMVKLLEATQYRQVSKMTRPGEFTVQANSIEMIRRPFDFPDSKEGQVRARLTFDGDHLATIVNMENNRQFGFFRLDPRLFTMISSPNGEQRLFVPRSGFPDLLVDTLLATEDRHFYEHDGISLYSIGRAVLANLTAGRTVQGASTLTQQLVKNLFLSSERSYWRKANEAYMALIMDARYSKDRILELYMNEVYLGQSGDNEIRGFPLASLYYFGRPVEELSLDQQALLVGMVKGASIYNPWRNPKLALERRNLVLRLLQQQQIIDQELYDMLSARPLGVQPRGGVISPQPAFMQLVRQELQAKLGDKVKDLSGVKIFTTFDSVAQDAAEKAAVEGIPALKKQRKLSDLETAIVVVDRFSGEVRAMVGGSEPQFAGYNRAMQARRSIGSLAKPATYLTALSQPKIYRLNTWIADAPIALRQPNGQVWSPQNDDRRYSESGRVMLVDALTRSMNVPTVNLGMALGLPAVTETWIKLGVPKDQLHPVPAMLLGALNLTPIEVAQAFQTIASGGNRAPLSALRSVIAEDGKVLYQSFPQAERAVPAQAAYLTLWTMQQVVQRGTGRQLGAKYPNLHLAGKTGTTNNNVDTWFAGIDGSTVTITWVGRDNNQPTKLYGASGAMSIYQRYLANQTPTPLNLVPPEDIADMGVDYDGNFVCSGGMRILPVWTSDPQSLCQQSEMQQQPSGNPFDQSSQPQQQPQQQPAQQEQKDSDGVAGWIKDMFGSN
Assay: SPR; reducing conditions: 2 mM TCEP in the SPR running buffer, immobilised PBP1B versions incubated in it for 30 min before the assay; LpoB injected from 19.5 nM to 10 μM; apparent KD
Settings: both partners purified

Kd: 17 nM
B1: LpoB (natural protein, E. coli)
chain: VGQREPAPVEEVKPAPEQPAEPQQPVPTVPSVPTIPQQPGPIEHEDQTAPPAPHIRHYDWNGAMQPMVSKMLGADGVTAGSVLLVDSVNNRTNGSLNAAEATETLRNALANNGKFTLVSAQQLSMAKQQLGLSPQDSLGTRSKAIGIARNVGAHYVLYSSASGNVNAPTLQMQLMLVQTGEIIWSGKGAVSQQ
notes: LpoB, E. coli; also called lipoprotein LpoB; source: E. coli BL21(DE3), purified (HisTrap, Superdex 200), as in Egan et al. 2014
